Reference: US20250066503A1, “CELL INJURY INDUCING THERAPEUTIC DRUG FOR USE IN CANCER THERAPY” (CHUGAI SEIYAKU KABUSHIKI KAISHA, priority 2016, published 2025)
Changes are numbered by the printed parent chain. Blank lines part the entries; values can stand above or below the molecule they belong to.

Experiments:
[1] = molecular target: T1, human GPC3 (human, UniProt P51654 25-563); assay: SPR, antibody captured by Protein A/G
T1 construct: range 25-563; soluble analyte; also called soluble human GPC3; glypican 3
T1 sequence (P51654 25-563 limits assumed): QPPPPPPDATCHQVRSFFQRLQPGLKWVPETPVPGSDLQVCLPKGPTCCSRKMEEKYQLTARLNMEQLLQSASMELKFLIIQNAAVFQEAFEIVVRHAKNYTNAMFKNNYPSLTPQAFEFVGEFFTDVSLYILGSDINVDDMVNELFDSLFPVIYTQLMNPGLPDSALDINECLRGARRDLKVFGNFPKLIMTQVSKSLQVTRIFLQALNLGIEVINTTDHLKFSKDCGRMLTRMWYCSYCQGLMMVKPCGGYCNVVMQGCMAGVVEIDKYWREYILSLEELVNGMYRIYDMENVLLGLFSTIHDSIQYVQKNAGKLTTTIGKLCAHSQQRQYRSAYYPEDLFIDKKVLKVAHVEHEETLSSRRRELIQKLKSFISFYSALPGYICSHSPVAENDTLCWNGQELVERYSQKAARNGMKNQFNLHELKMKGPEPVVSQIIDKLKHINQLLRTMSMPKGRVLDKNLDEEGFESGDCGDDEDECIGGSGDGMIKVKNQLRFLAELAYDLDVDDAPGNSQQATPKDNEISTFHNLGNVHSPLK
Procedure: The activity to bind human GPC3 when using GL4 (SEQ ID NO: 41) and L0000 (SEQ ID NO: 53) as the L-chain variable regions was evaluated. This was performed using the molecular form of a single-arm antibody having a single Fab at the Fc region of a human IgG1 heterodimerized by the knobs-into-hole technique. H0000 (SEQ ID NO: 40) was used for the anti-GPC3 antibody H-chain variable region.
The affinity and binding rate constants of an anti-GPC3 antibody for an antigen were measured by the multi-cycle kinetics method of a surface plasmon resonance assay using Biacore™-T200 (GE Healthcare Japan). HBS-EP+(GE Healthcare Japan) was used for the running buffer, and an amine coupling kit (GE Healthcare Japan) was used to covalently bind Protein A/G to the CM5 chip (carboxymethyl dextran-coated chip). […] Measurements were carried out by first allowing Protein A/G to capture the antibody solution, and then injecting the human GPC3 solution at a flow rate of […] for three minutes to allow reaction to take place. Then, the solution was switched to HBS-EP+ and the dissociation phase was measured for 15 minutes. After completion of the dissociation phase measurement, the sensor chip was regenerated by washing with 10 mM Gly-HCl at pH 1.5. Measurement at the concentration of 0 was similarly carried out by allowing Protein A/G to capture the antibody solution, performing a three-minute HBS-EP+ injection to allow reaction to take place, and then switching to HBS-EP+ to measure the dissociation phase for 15 minutes. After completion of the dissociation phase measurement, the sensor chip was regenerated by washing with 10 mM Gly-HCl at pH 1.5. A data analysis software exclusively for Biacore, Biacore T200 Evaluation Software Version 1.0, was used to perform kinetic analyses to calculate the binding rate constant (ka), dissociation rate constant (kd), and the rate constant ratio from the obtained sensorgrams.

[2] = molecular target: T2, soluble human CD3 epsilon chain (human, UniProt P07766 23-126); assay: SPR, human CD3 on the chip
T2 construct: also called CD3ε
T2 sequence (P07766 23-126 limits assumed): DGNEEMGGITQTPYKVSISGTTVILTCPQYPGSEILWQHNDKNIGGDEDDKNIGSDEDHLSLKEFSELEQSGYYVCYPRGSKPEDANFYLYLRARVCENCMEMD
Procedure: The activity to bind human CD3 when using hCE115HA (SEQ ID NO: 52) as the H chain variable region and L0000 (SEQ ID NO: 53) as the L-chain variable region was evaluated. This was performed using the molecular form of a single-arm antibody having a single Fab at the Fc region of a human IgG1 heterodimerized by the knobs-into-hole technique.
The affinity and binding rate constants of an anti-CD3 antibody for an antigen were measured by the single-cycle kinetics method of a surface plasmon resonance assay using Biacore™-T200 (GE Healthcare Japan). HBS-EP+(GE Healthcare Japan) was used for the running buffer, and an amine coupling kit (GE Healthcare Japan) was used to covalently bind human CD3 to the CM4 chip (carboxymethyl dextran-coated chip). The anti-CD3 antibody used as the analyte was prepared at 5 and […] using HBS-EP+. Measurements were carried out by first injecting each of the 5- and 20-g/mL anti-CD3 antibody solutions for three minutes continuously at a flow rate of 20 L/min to allow reaction to take place. Then, the solution was switched to HBS-EP+ and the dissociation phase was measured for 3 minutes. After completion of the dissociation phase measurement, the sensor chip was regenerated by washing with 10 mM Gly-HCl at pH 1.5. Measurement at the concentration of 0 was carried out by performing each of the three-minute HBS-EP+ injections twice successively to allow reaction to take place, and then switching to HBS-EP+ to measure the dissociation phase for 3 minutes. After completion of the dissociation phase measurement, the sensor chip was regenerated by washing with 10 mM Gly-HCl at pH 1.5. A data analysis software exclusively for Biacore, Biacore T200 Evaluation Software Version 1.0, was used to perform kinetic analyses to calculate the binding rate constant (ka), dissociation rate constant (kd), and the rate constant ratio from the obtained sensorgrams.

[3] = molecular target: T1, human GPC3; assay: SPR, single-arm antibody
[4] = molecular target: T1, human GPC3; assay: SPR
[5] = test system: SK-HEP-1/hGPC3 (SK-pca31a) xenograft tumor; assay: In vivo drug efficacy, NOD scid/T cell-injected model, SK-pca31a; set-up: species or system NOD scid mice; settings: 5 mg/kg once through the tail vein, compared to the vehicle-administered group
Procedure: Methods called an NOD scid/T cell-injected model, a humanized NOG mouse model, and a human CD3εδγ gene-modified mouse model were used in the in vivo drug efficacy evaluation. Assay using an NOD scid/T cell-injected model was performed as follows. […] T cells expanded by culturing human PBMCs in vitro were injected into the NOD scid mice with confirmed tumor establishment. The mice were treated by administering bispecific antibody-38 and bispecific antibody-30, -31, -32, or -33. Assay using a humanized NOG mouse model was performed as follows. CD34-positive hematopoietic stem cells derived from umbilical cord blood were transplanted into NOG mice by tail vein injection. Human T cells are constantly supplied in the mice, which are called humanized NOG mice. The PC-10 cell line was transplanted into humanized NOG mice. The humanized NOG mice with confirmed establishment of PC-10 tumor were treated by administering antibody-38. Assay using a human CD3εδγ gene-modified mouse model was performed as follows. Cells of mouse-derived cell line forced to express human GPC3 were transplanted into a human CD3εδγ gene-modified mouse model, which had been prepared according to Reference Example 10. The human CD3εδγ gene-modified mice with confirmed tumor establishment were treated by administering antibody-38.
The drug efficacy evaluation studies for bispecific antibody-38, and bispecific antibody-30, -31, -32, and -33 in NOD scid/T cell-injected model were performed as follows. T cell expansion culture was performed using PBMCs separated from blood collected from a healthy person and T cell activation/expansion kit/human. Each of human cancer cell lines (MKN74, FU-97, SNU-1, SCC152, KYSE70, PC-10, HuH-7, TOV-21G, RMG-1, and SK-pca31a (SK-HEP-1/hGPC3)) was mixed with Matrigel™ Basement Membrane Matrix, and transplanted subcutaneously into NOD scid mice (CLEA Japan). An in vivo-passaged line (STM-03) was transplanted as about 2-mm tumor tissue cubes subcutaneously into NOD scid mice (CLEA Japan). The day of transplantation was defined as Day 0. On the day before transplantation, anti-asialo GM1 antibody (Wako Pure Chemical Industries) was administered intraperitoneally at 0.2 mg/mouse. When tumor was clearly established after transplantation, the mice were separated into groups based on tumor size and body weight. Then, anti-asialo GM1 antibody was administered intraperitoneally at 0.2 mg/mouse again. On the following day, T cells obtained by the aforementioned expansion culture were transplanted intraperitoneally at 1.5×10^7 to 3×10^7 cells/mouse. About two to five hours after T cell transplantation, antibody-38 was administered at 1 mg/kg (MKN74, FU-97, SNU-1, SCC152, KYSE70, PC-10, HuH-7, TOV-21G, RMG-1, and STM-03) through the tail vein. The administration was performed only once. […]

- Kd [3]: 5.25 nM
- Kd [4]: 5.25 nM
B3: GCH054-G1dh/none-Hi-Kn010G3/L0011-k0 (antibody, V domains shown)
VH: QVQLVQSGAEVKKPGASVTVSCKASGYTFTDYEMHWIRQPPGEGLEWIGAIDGETPDTAYSEKFKGRVTLTADKSTSTAYMELSSLTSEDTAVYYCTRFYSYTYWGQGTLVTVSS
VL: DIVMTQSPLSLPVTPGEPASISCRSSQPLVHSNRNTYLHWYQQKPGQAPRLLIYKVSNRFSGVPDRFSGSGSGTDFTLKISRVEAEDVGVYYCGQGTQVPYTFGQGTKLEIKR
notes: one-arm

- Kd [3]: 4.16 nM
- Kd [4]: 3.97 nM
B4: H0610-G1dh/none-Hi-Kn010G3/L0000-k0 (antibody, V domains shown)
VH: B3 VH with T19K, E43Q, E54K, E62Q
VL: B3 VL with P28S
notes: one-arm

- Kd [3]: 4.54 nM
- Kd [4]: 3.88 nM
B6: GCH094-G1dh/none-Hi-Kn010G3/L0011-k0 (antibody, V domains shown)
VH: B3 VH with I37V, P40A, I48M
VL: B3 VL
notes: one-arm

- Kd [1]: 36 nM
- koff [1]: 0.011 s⁻¹
- kon [1]: 300000 M⁻¹ s⁻¹
B7: H0000/L0000 single-arm antibody (antibody, human IgG1, V domains shown)
VH: B3 VH with T19K, E43Q, G53P, E54K, P56G, E62Q
VL: DIVMTQSPLSLPVTPGEPASISCRSSQSLVHSNRNTYLHWYQQKPGQAPRLLIYKVSNRFSGVPDRFSGSGSGTDFTLKISRVEAEDVGVYYCGQGTQVPYTFGQGTKLEIK
notes: single Fab on human IgG1 Fc heterodimerized by knobs-into-hole

Continued, molecule first:

B1: H0000/GL4 single-arm antibody (antibody, human IgG1, V domains shown)
VH: B3 VH with T19K, E43Q, G53P, E54K, P56G, E62Q
VL: B7 VL with G94S, G96N, Q98H, Y101P
notes: as for B7
- Kd [1]: 4.2 nM
- koff [1]: 0.0018 s⁻¹
- kon [1]: 430000 M⁻¹ s⁻¹

B2: hCE115HA/L0000 single-arm antibody (antibody, human IgG1, V domains shown)
VH: QVQLVESGGGVVQPGRSLRLSCAASGFTFSNAWMHWVRQAPGKGLEWVAQIKAKSNNYATYYAESVKGRFTISRDDSKNSLYLQMNSLKTEDTAVYYCRYVHYGAYYGVDAWGQGTTVTVSS
VL: B7 VL
notes: as for B7
- Kd [2]: 120 nM
- koff [2]: 0.023 s⁻¹
- kon [2]: 190000 M⁻¹ s⁻¹

B5: GCH065-G1dh/none-Hi-Kn010G3/L0011-k0 (antibody, V domains shown)
VH: B3 VH with E54P
VL: B3 VL
notes: one-arm
- Kd [3]: 0.884 nM
- Kd [4]: 0.884 nM

B8: antibody-30: optimized anti-human CD3ε chain and anti-human GPC3 bispecific antibody (antibody)
heavy 1: QVQLVESGGGLVQPGRSLRLSCAASGFTFSNAWMHWVRQAPGKGLEWVAQIKDKSQNYATYYAESVKGRFTISRDDSKNSLYLQMNSLKTEDTAVYYCRYVHYAAGYGVDAWGQGTTVTVSSASTKGPSVFPLAPCSRSTSESTAALGCLVKDYFPEPVTVSWNSGALTSGVHTFPAVLQSSGLYSLSSVVTVPSSSLGTKTYTCNVDHKPSNTKVDKRVESKYGPPCPPCPAPEFRGGPKVFLFPPKPKDTLMISRTPEVTCVVVDVSQEDPEVQFNWYVDGVEVHNAKTKPREEQFASTYRVVSVLTVLHQDWLNGKEYKCKVSNKGLPSSIEKTISKAKGQPREPQVYTLPPSQKEMTKNQVSLTCLVKGFYPSDIAVEWESNGQPENNYKTTPPVLDSDGSFFLYSKLTVDKSRWQEGNVFSCSVMHEALHNRYTQKSLSLSP
heavy 2: QVQLVQSGAEVKKPGASVTVSCKASGYTFTDYEMHWVRQAPGEGLEWMGAIDGETPDTAYSEKFKGRVTLTADKSTSTAYMELSSLTSEDTAVYYCTRFYSYTYWGQGTLVTVSSASTKGPSVFPLAPCSRSTSESTAALGCLVKDYFPEPVTVSWNSGALTSGVHTFPAVLQSSGLYSLSSVVTVPSSSLGTQTYTCNVDHKPSNTKVDKRVESKYGPPCPPCPAPEFRGGPKVFLFPPKPKDTLMISRTPEVTCVVVDVSQEDPEVQFNWYVDGVEVHNAKTKPREEQFASTYRVVSVLTVLHQDWLNGKEYKCKVSNKGLPSSIEKTISKAKGQPREPQVYTLPPSQEEMTKNQVSLTCLVKGFYPSDIAVEWESNGQPENNYKTTPPVLDSDGSFFLYSKLTVDKSRWQEGNVFSCSVMHEALHNHYTQESLSLSP
light: DIVMTQSPLSLPVTPGEPASISCRSSQPLVHSNRNTYLHWYQQKPGQAPRLLIYKVSNRFSGVPDRFSGSGSGTDFTLKISRVEAEDVGVYYCGQGTQVPYTFGQGTKLEIKRTVAAPSVFIFPPSDEQLKSGTASVVCLLNNFYPREAKVQWKVDNALQSGNSQESVTEQDSKDSTYSLSSTLTLSKADYEKHKVYACEVTHQGLSSPVTKSFNRGEC
- anti-tumor effect [5]: evident anti-tumor effect

B9: antibody-32: optimized anti-human CD3ε chain and anti-human GPC3 bispecific antibody (antibody)
heavy 1: B8 heavy 1 with L11V, R16G, D75A, L81I, A111I
heavy 2: B8 heavy 2 with V37I, A40P, M48I, E54P
light: B8 light
- anti-tumor effect [5]: evident anti-tumor effect

B10: antibody-31: optimized anti-human CD3ε chain and anti-human GPC3 bispecific antibody (antibody)
heavy 1: B8 heavy 1 with L11V, R16G, D75A, L81I, A111I
heavy 2: B8 heavy 2
light: B8 light
- anti-tumor effect [5]: evident anti-tumor effect

B11: antibody-33: optimized anti-human CD3ε chain and anti-human GPC3 bispecific antibody (antibody)
heavy 1: B8 heavy 1
heavy 2: B8 heavy 2 with V37I, A40P, M48I, E54P
light: B8 light
- anti-tumor effect [5]: evident anti-tumor effect
